Consider 75 variants from paper PMC5740061 (Nature Communications, 2017).

To fix the notation:
B1: SDGF-TB1G1 (TB1G1 displayed on 293F cells) [designed binder] / Biotinylated His-Avi-TEAD1(194–411) [modified: biotin (BirA-500 kit); biotin (BirA-500 kit)] [not stated] (parent complex)
chain 1: PDEYIERAKECCKKGDIQCCLRYFEESGDPNVMLICLFCP
chain 2: RSIGTTKLRLVEFSAFLEQQRDPDSYNKHLFVHIGHANHSYSDPLLESVDIRQIYDKFPEKKGGLKELFGKGPQNAFFLVKFWADLNCNIQDDAGAFYGVTSQYESSENMTVTCSTKVCSFGKQVVEKVETEYARFENGRFVYRINRSPMCEYMINFIHKLKHLPEKYMMNSVLENFTILLVVTNRDTQETLLCMACVFEVSNSEHGAQHHIYRLVKD

Variants of B1 are the subject of the first experiment.
Experiment: not given
Regarding chain 1 E25A, the ratio to parent was ~0.07. The same measure, in the same setting: next, chain 1 C11S, chain 1 C12S, chain 1 C19S, chain 1 C20S, chain 1 C36S, chain 1 C39S: ~0.01. Same read-out and setting: with chain 1 M33A the figure was ~0.01.

The variants in a further experiment derive from B1. Description: mammalian (293F) surface display of a site-saturation mutagenesis library (every non-Cys single substitution), FACS sorting on biotinylated TEAD1 YBD, two sorting rounds, Illumina sequencing with perfect-match mapping; 20 nM biotinylated TEAD, monovalent 2-step stain (TEAD alone 30 min at 4 °C, dilute, pellet, then 20 nM streptavidin-Alexa Fluor 647), flow sorting on a BD Aria.
For chain 1 K9T, the enrichment was 2.68 log2 (fold change of variant abundance after two TEAD sorts vs input, normalised to TB1G1). As to chain 1 K9I, the enrichment was -3.03 log2 (fold change of variant abundance after two TEAD sorts vs input, normalised to TB1G1). Same read-out and setting: next, chain 1 K9E: 3.95 log2 (fold change of variant abundance after two TEAD sorts vs input, normalised to TB1G1).

Regarding chain 1 K9Q, the enrichment was 1.1 log2 (fold change of variant abundance after two TEAD sorts vs input, normalised to TB1G1). Still for that read-out and setting: with chain 1 K9W the figure was -4.41 log2 (fold change of variant abundance after two TEAD sorts vs input, normalised to TB1G1); with chain 1 K9R, -1.3 log2 (fold change of variant abundance after two TEAD sorts vs input, normalised to TB1G1). The same measure, in the same setting: with chain 1 K9V the figure was -8.88 log2 (fold change of variant abundance after two TEAD sorts vs input, normalised to TB1G1); with chain 1 K9F, -3.52 log2 (fold change of variant abundance after two TEAD sorts vs input, normalised to TB1G1). Still for that read-out and setting: next, chain 1 K9S: -0.907 log2 (fold change of variant abundance after two TEAD sorts vs input, normalised to TB1G1); chain 1 K9N: 3.31 log2 (fold change of variant abundance after two TEAD sorts vs input, normalised to TB1G1); chain 1 E6L: -0.404 log2 (fold change of variant abundance after two TEAD sorts vs input, normalised to TB1G1). As to chain 1 E6S, the enrichment is -1.09 log2 (fold change of variant abundance after two TEAD sorts vs input, normalised to TB1G1). Turning to chain 1 E6M, the enrichment is -2.04 log2 (fold change of variant abundance after two TEAD sorts vs input, normalised to TB1G1). Same read-out and setting: next, chain 1 E6V: -1.55 log2 (fold change of variant abundance after two TEAD sorts vs input, normalised to TB1G1); chain 1 E6Y: -2.33 log2 (fold change of variant abundance after two TEAD sorts vs input, normalised to TB1G1). The same measure, in the same setting: next, chain 1 E6T: -0.921 log2 (fold change of variant abundance after two TEAD sorts vs input, normalised to TB1G1); chain 1 E6I: -1.56 log2 (fold change of variant abundance after two TEAD sorts vs input, normalised to TB1G1). Still for that read-out and setting: with chain 1 E6A the figure was -0.676 log2 (fold change of variant abundance after two TEAD sorts vs input, normalised to TB1G1).

As to chain 1 R7G, the enrichment is 1.31 log2 (fold change of variant abundance after two TEAD sorts vs input, normalised to TB1G1). On the same count and under the same terms, next, chain 1 R7P: -2.49 log2 (fold change of variant abundance after two TEAD sorts vs input, normalised to TB1G1); chain 1 R7V: -2.31 log2 (fold change of variant abundance after two TEAD sorts vs input, normalised to TB1G1). Regarding chain 1 R7Y, the enrichment is -1.01 log2 (fold change of variant abundance after two TEAD sorts vs input, normalised to TB1G1).

Regarding chain 1 R7N, the enrichment was 0.343 log2 (fold change of variant abundance after two TEAD sorts vs input, normalised to TB1G1). Still for that read-out and setting: with chain 1 R7S the figure was 0.311 log2 (fold change of variant abundance after two TEAD sorts vs input, normalised to TB1G1). In the case of chain 1 R7Q, the enrichment was -0.484 log2 (fold change of variant abundance after two TEAD sorts vs input, normalised to TB1G1). On the same count and under the same terms, with chain 1 R7H the figure was -0.322 log2 (fold change of variant abundance after two TEAD sorts vs input, normalised to TB1G1).

Regarding chain 1 R7K, the enrichment was 0.473 log2 (fold change of variant abundance after two TEAD sorts vs input, normalised to TB1G1). Consider chain 1 R7F, for which the enrichment was -1.04 log2 (fold change of variant abundance after two TEAD sorts vs input, normalised to TB1G1). Same read-out and setting: with chain 1 R7D the figure was -2.25 log2 (fold change of variant abundance after two TEAD sorts vs input, normalised to TB1G1); with chain 1 A8G, -4.11 log2 (fold change of variant abundance after two TEAD sorts vs input, normalised to TB1G1).

With chain 1 A8K, the enrichment is -4.73 log2 (fold change of variant abundance after two TEAD sorts vs input, normalised to TB1G1). The same measure, in the same setting: with chain 1 A8R the figure was -5.84 log2 (fold change of variant abundance after two TEAD sorts vs input, normalised to TB1G1); with chain 1 A8Q, -6 log2 (fold change of variant abundance after two TEAD sorts vs input, normalised to TB1G1); with chain 1 A8S, -2.79 log2 (fold change of variant abundance after two TEAD sorts vs input, normalised to TB1G1). The same measure, in the same setting: with chain 1 I5G the figure was -3.97 log2 (fold change of variant abundance after two TEAD sorts vs input, normalised to TB1G1).

On to chain 1 I5M, for which the enrichment was -1.87 log2 (fold change of variant abundance after two TEAD sorts vs input, normalised to TB1G1). For the variant chain 1 I5R, the enrichment is -3.27 log2 (fold change of variant abundance after two TEAD sorts vs input, normalised to TB1G1). Consider chain 1 I5L, for which the enrichment was -0.381 log2 (fold change of variant abundance after two TEAD sorts vs input, normalised to TB1G1). On the same count and under the same terms, with chain 1 I5N the figure was -1.34 log2 (fold change of variant abundance after two TEAD sorts vs input, normalised to TB1G1). On the same count and under the same terms, next, chain 1 I5W: -7.46 log2 (fold change of variant abundance after two TEAD sorts vs input, normalised to TB1G1); chain 1 I5V: -0.274 log2 (fold change of variant abundance after two TEAD sorts vs input, normalised to TB1G1); chain 1 I5F: -8.36 log2 (fold change of variant abundance after two TEAD sorts vs input, normalised to TB1G1). On to chain 1 P1F, for which the enrichment was -1.3 log2 (fold change of variant abundance after two TEAD sorts vs input, normalised to TB1G1). Turning to chain 1 P1Q, the enrichment is -0.836 log2 (fold change of variant abundance after two TEAD sorts vs input, normalised to TB1G1). On the same count and under the same terms, with chain 1 P1K the figure was -0.294 log2 (fold change of variant abundance after two TEAD sorts vs input, normalised to TB1G1). Still for that read-out and setting: next, chain 1 P1E: 1.12 log2 (fold change of variant abundance after two TEAD sorts vs input, normalised to TB1G1); chain 1 P1I: -2.27 log2 (fold change of variant abundance after two TEAD sorts vs input, normalised to TB1G1); chain 1 P1H: -0.884 log2 (fold change of variant abundance after two TEAD sorts vs input, normalised to TB1G1). The same measure, in the same setting: next, chain 1 M33I: -3.16 log2 (fold change of variant abundance after two TEAD sorts vs input, normalised to TB1G1). chain 1 E3G: the enrichment is -0.623 log2 (fold change of variant abundance after two TEAD sorts vs input, normalised to TB1G1). The same measure, in the same setting: next, chain 1 E3R: -1.81 log2 (fold change of variant abundance after two TEAD sorts vs input, normalised to TB1G1); chain 1 E3V: -1.39 log2 (fold change of variant abundance after two TEAD sorts vs input, normalised to TB1G1). Take chain 1 E3A: the enrichment was -2.02 log2 (fold change of variant abundance after two TEAD sorts vs input, normalised to TB1G1). The same measure, in the same setting: with chain 1 E3H the figure was -0.307 log2 (fold change of variant abundance after two TEAD sorts vs input, normalised to TB1G1). Take chain 1 E3D: the enrichment is 0.801 log2 (fold change of variant abundance after two TEAD sorts vs input, normalised to TB1G1). For chain 1 Y4M, the enrichment was -0.684 log2 (fold change of variant abundance after two TEAD sorts vs input, normalised to TB1G1). On the same count and under the same terms, next, chain 1 Y4I: -0.405 log2 (fold change of variant abundance after two TEAD sorts vs input, normalised to TB1G1); chain 1 Y4N: 0.0419 log2 (fold change of variant abundance after two TEAD sorts vs input, normalised to TB1G1); chain 1 Y4T: -0.869 log2 (fold change of variant abundance after two TEAD sorts vs input, normalised to TB1G1). The same measure, in the same setting: with chain 1 Y4S the figure was -0.738 log2 (fold change of variant abundance after two TEAD sorts vs input, normalised to TB1G1). Still for that read-out and setting: with chain 1 Y4E the figure was -6.52 log2 (fold change of variant abundance after two TEAD sorts vs input, normalised to TB1G1); with chain 1 Y4H, -1.9 log2 (fold change of variant abundance after two TEAD sorts vs input, normalised to TB1G1). chain 1 Y4F: the enrichment was 0.668 log2 (fold change of variant abundance after two TEAD sorts vs input, normalised to TB1G1).

For chain 1 Y4A, the enrichment was 0.259 log2 (fold change of variant abundance after two TEAD sorts vs input, normalised to TB1G1). Still for that read-out and setting: next, chain 1 D2V: -2.34 log2 (fold change of variant abundance after two TEAD sorts vs input, normalised to TB1G1). The same measure, in the same setting: next, chain 1 D2S: -1.01 log2 (fold change of variant abundance after two TEAD sorts vs input, normalised to TB1G1); chain 1 D2L: -3.53 log2 (fold change of variant abundance after two TEAD sorts vs input, normalised to TB1G1).

For chain 1 D2P, the enrichment was -2.11 log2 (fold change of variant abundance after two TEAD sorts vs input, normalised to TB1G1). The same measure, in the same setting: next, chain 1 D2Q: -0.201 log2 (fold change of variant abundance after two TEAD sorts vs input, normalised to TB1G1); chain 1 D2Y: -1.63 log2 (fold change of variant abundance after two TEAD sorts vs input, normalised to TB1G1); chain 1 D2E: 1.16 log2 (fold change of variant abundance after two TEAD sorts vs input, normalised to TB1G1). Still for that read-out and setting: next, chain 1 D2R: -7.12 log2 (fold change of variant abundance after two TEAD sorts vs input, normalised to TB1G1).
